Test results reported in patent publication US20250129173A1 (SHENYANG SUNSHINE PHARMACEUTICAL, published 2025).
Several values for one entry are separate records, joined by “and”; a condition that tells them apart may be missing. Equal entries are not always repeated.

Legend:
[1] = molecular target: T1, recombinant human PRLR-ECD protein (Acro, item No. PRR-H52Ha) (human, UniProt P16471 25-234); experiment: indirect ELISA, coated human PRLR-ECD
T1 construct: Bought protein; also called PRLR-His
T1 sequence: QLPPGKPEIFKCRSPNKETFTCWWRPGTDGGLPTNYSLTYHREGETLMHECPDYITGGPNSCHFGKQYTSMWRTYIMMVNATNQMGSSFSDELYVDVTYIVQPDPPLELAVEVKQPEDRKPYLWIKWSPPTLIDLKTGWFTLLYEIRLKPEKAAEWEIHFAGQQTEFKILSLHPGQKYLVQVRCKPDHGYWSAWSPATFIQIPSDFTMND

[2] = molecular target: T2, human PRLR on the cell surface (T47D human breast cancer cells; BAF3-huPRLR cells) (human, UniProt P16471 25-622); experiment: cell-based or functional assay
T2 sequence (looked up): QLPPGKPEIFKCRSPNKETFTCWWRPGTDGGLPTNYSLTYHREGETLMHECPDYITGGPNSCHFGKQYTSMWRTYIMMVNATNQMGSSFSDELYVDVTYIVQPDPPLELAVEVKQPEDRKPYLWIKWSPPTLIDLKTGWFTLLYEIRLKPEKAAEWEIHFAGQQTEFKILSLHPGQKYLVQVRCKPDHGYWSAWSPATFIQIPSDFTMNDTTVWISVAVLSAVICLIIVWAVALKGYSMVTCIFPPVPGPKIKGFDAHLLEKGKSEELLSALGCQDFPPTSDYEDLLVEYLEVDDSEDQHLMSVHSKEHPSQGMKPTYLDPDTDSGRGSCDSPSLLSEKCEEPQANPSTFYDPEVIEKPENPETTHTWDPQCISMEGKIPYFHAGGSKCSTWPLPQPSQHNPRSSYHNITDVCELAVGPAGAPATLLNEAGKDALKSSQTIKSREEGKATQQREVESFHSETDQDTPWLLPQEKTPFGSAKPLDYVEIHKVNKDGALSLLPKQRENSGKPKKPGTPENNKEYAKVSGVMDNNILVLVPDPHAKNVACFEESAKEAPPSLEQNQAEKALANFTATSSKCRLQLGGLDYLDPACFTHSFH

[3] = molecular target: T2, human PRLR on the cell surface (T47D …); experiment: flow cytometry on T47D cells
Protocol: In this experiment, a human mammary ductal carcinoma cell T47D was used as a target cell, and SPGA02-260 was used as a primary antibody. SPGA02-260 was serially diluted from 20 μg/mL in six gradients according to a 6-fold gradient. An antibody diluted with a 100 μL gradient and 100 μL of a T47D cell were incubated for 30 min at room temperature (The cell was suspended in 100 μL of an RPMI-1640 serum-free medium (purchased from Gibco, item No.: 61870036). The maximum working concentration of a monoclonal antibody was 10 μg/mL). The cell was washed twice with PBS to remove unbound SPGA02-260. Then, the cell was incubated with 50 μL of anti-murine fluorescent secondary antibody containing 5 μg/mL Alexa Fluor 488 label (purchased from Thermo and Invitrogen, item No.: A11001) at 4° C. for 40 min under light protection. The cell was washed twice with PBS to remove an unbound secondary antibody. Finally, the cell was resuspended in 100 μL of PBS. The binding affinity of SPGA02-260 to the cells was determined by a flow cytometry (purchased from Beckman, model: CytoFLEX). Data obtained were fitted and analyzed by GraphPad Prism6 software.

[4] = molecular target: T3, mouse PRLR protein (Beijing Sinobiological, item No. 50457-M08H) (mouse, UniProt Q08501 20-229); experiment: indirect ELISA, coated mouse PRLR protein
T3 construct: Bought; also called murine-derived PRLR-ECD
T3 sequence (looked up): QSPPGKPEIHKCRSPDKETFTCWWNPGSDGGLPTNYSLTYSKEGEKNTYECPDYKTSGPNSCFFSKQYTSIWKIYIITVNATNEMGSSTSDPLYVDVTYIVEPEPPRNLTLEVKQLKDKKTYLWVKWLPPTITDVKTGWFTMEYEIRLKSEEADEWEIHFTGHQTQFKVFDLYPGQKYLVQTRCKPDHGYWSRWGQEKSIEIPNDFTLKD
Protocol: A mouse PRLR protein (purchased from Beijing Sinobiological Company, item No. 50457-M08H), i.e., mouse PRLR, was coated in a 96-well ELISA plate according to 0.5 μg/well. The cross-reactivity of SPGA02-ch18, and SPGA02-ch260 to the mouse PRLR was determined. Other specific experimental methods were referred to Embodiment 8.

[5] = molecular target: T4, PRLR-ECD Fibronectin type-III 2 polypeptide 7 (189-208) (human, N-terminal biotin (bio-)); experiment: peptide ELISA
T4 peptide: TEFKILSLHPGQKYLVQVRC

[6] = molecular target: T1, recombinant human PRLR-ECD protein …; experiment: indirect ELISA, coated human PRLR-ECD 0.5 µg/mL
Protocol: An indirect enzyme-linked immunosorbent assay was used to determine the binding ability of an murine-derived antibody to human PRLR as follows: diluting a recombinant human PRLR-ECD protein to 0.5 μg/mL with a coating solution (a phosphate coating buffer, pH 7.4), adding a solution to an enzyme-labeled plate with 100 μL/well, and coating the plate at 4° C. overnight. The plate was washed once with PBST. 300 μL/well of blocking solution (1% BSA-PBST) was added. The plate was incubated at 37° C. for 2 h and then washed three times with PBST. The purified antibody was diluted to 1 μg/mL with 1% BSA-PBST. After a solution was diluted with 1:3 gradient, the enzyme-labeled plate was added with 100 μL/well, and incubated at 37° C. for 1 h. The plate was washed with PBST 3 times. A HRP-labeled goat anti-mouse IgG secondary antibody (purchased from Abcam, item No.: ab6789) was added and incubate at 37° C. for 30 min. After the plate was washed 3 times with PBST, residual droplets were patted to be dry as much as possible with a blotting paper. 100 μL of TMB (purchased from KPL, item No.: 52-00-03) was added to each well, placed at room temperature (20±5° C.) and protected from light for 5 min. […] An OD value at 450 nm of an enzyme-labeled instrument was read to analyze the binding ability of the antibody to be tested to a target antigen PRLR-His.

Binder	EC50 [1]	IC50 of inhibition of growth of BAF3-huPRLR cells (CCK8, 72 h) [2]	EC50 [3]	EC50 [4]	binding result [5]	EC50 [6]
humanized monoclonal antibody SPGA02-hu260 (antibody, human IgG1, kappa, V domains shown, Expressed in Expi-293F cells) VH: QVQLQESGPGLVKPSETLSLTCTVSGFSLTRNGVSWIRQPPGKGLEWVGVIWGDGSTNYNSAFMSRVTISVDTSKNQVSLKLSSVTAADTAVYYCAKEGLYYYGRYFDVWGQGTTVTVSS VL: DIQMTQSPSSLSASVGDRVTITCRASQDVGSALAWYQQKPGKVPKLLIYWASTRHTGVPSRFSGSGSGTDFTLTISSLQPEDVATYYCQQYSNYPLTFGGGTKLEIKR	0.00898 µg/mL and 0.06 nM	8.28 ng/ml and 0.06 nM				
chimeric antibody SPGA02-ch260 (antibody, human IgG1, kappa, V domains shown, Expressed in Expi293F cells; also called SPGA01-ch260) VH: QVQLKESGPGLVAPSQSLSITCTVSGFSLTRNGVSWVRQPPGKGLEWLGIIWGDGSTNYHSALISRLSISKDNSKSQVFLKLNSLQTDDTATYYCAKEGLYYYGRYFDVWGAGTTVTVSS VL: DIVMTQSHKFMSTSVGDRVSITCKASQDVGSAVAWYQQKPGQSPKVLIYWASTRHTGVPDRFTGSGSGTDFTLTISNVQSEDLADYFCQQYSNYPLTFGGGTKLEIRR	0.0129 µg/mL and 0.09 nM		0.21 nM and 0.031 µg/mL	0.297 µg/mL		
murine-derived anti-human PRLR monoclonal antibody SPGA02-260 (antibody, V domains shown, Mouse monoclonal antibody purified from hybridoma supernatant by protein A; also called SPHA02-260) VH: QVQLKESGPGLVAPSQSLSITCTVSGFSLTRNGVSWVRQPPGKGLEWLGIIWGDGSTNYHSALISRLSISKDNSKSQVFLKLNSLQTDDTATYYCAKEGLYYYGRYFDVWGAGTTVTVSS VL: DIVMTQSHKFMSTSVGDRVSITCKASQDVGSAVAWYQQKPGQSPKVLIYWASTRHTGVPDRFTGSGSGTDFTLTISNVQSEDLADYFCQQYSNYPLTFGGGTKLEIR			0.026 µg/mL and 0.17 nM		binds	0.0209 µg/mL and 0.14 nM
